Measured values from paper PMC10250209, “UV-DDB stimulates the activity of SMUG1 during base excision repair of 5-hydroxymethyl-2'-deoxyuridine moieties”.
Positions count from the first letter of the chain named.

Experiments:
[1] = target: T1, SMUG1 WT (UniProt Q53HV7); test: single-molecule DNA tightrope; conditions: tetrahydrofuran abasic site every 2 kb, EMSA: 8 nM DNA, 20 mM HEPES pH 7.5, 150 mM NaCl, 2 mM DTT (5 mM for SMUG1), 5% glycerol, 0.5 mg/ml BSA (0.5 mg/l [sic] for SMUG1), +/- 1.5 mM MgCl2, RT 20 min
T1 sequence: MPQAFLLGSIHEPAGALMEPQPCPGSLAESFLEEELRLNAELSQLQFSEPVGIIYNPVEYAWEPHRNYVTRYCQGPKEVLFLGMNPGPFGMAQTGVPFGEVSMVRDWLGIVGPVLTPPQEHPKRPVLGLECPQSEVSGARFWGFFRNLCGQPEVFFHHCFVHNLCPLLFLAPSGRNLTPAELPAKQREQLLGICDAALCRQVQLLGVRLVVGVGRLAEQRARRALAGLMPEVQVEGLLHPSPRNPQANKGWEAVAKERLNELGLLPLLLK

[2] = target: T1, SMUG1 WT; test: EMSA; conditions: apparent Kd; abasic substrate taken as THF37; tetrahydrofuran abasic analog (Z, written N) at position 20 of top strand, opposite T; EMSA: 8 nM DNA, 20 mM HEPES pH 7.5, 150 mM NaCl, 2 mM DTT (5 mM for SMUG1), 5% glycerol, 0.5 mg/ml BSA (0.5 mg/l [sic] for SMUG1), +/- 1.5 mM MgCl2, RT 20 min
[3] = target: single-strand selective monofunctional DNA glycosylase (SMUG1), His-tagged (UniProt Q53HV7); test: single-molecule DNA tightrope assay, dual-colour Qdot co-localisation; 605 Qdot-labelled His-SMUG1 (2.6 nM) injected first, then 705 Qdot-labelled Flag-UV-DDB (3.1 nM), on DNA tightropes with one abasic (THF) site every 2 kb; 25 mM HEPES pH 7.5, 150 mM NaCl, 0.1 mg/ml BSA, 50 nM biotin, 1 mM DTT; RT
[4] = target: T2, UV-DDB (DDB1-DDB2 heterodimer) (UniProt Q16531;Q92466 1-1140;1-427); test: EMSA; no Mg2+; EMSA: 8 nM DNA, 20 mM HEPES pH 7.5, 150 mM NaCl, 2 mM DTT (5 mM for SMUG1), 5% glycerol, 0.5 mg/ml BSA (0.5 mg/l [sic] for SMUG1), +/- 1.5 mM MgCl2, RT 20 min (30 min for displacement); 5% native gel, 1/2x TBE, 4 C; conditions: protein: recombinant, tags: DDB1-6xHis, DDB2-Flag, copies: 1;1, label: 3'-6FAM on top strand, blunt
T2 sequence (Q16531 whole entry, chain 1 of 2): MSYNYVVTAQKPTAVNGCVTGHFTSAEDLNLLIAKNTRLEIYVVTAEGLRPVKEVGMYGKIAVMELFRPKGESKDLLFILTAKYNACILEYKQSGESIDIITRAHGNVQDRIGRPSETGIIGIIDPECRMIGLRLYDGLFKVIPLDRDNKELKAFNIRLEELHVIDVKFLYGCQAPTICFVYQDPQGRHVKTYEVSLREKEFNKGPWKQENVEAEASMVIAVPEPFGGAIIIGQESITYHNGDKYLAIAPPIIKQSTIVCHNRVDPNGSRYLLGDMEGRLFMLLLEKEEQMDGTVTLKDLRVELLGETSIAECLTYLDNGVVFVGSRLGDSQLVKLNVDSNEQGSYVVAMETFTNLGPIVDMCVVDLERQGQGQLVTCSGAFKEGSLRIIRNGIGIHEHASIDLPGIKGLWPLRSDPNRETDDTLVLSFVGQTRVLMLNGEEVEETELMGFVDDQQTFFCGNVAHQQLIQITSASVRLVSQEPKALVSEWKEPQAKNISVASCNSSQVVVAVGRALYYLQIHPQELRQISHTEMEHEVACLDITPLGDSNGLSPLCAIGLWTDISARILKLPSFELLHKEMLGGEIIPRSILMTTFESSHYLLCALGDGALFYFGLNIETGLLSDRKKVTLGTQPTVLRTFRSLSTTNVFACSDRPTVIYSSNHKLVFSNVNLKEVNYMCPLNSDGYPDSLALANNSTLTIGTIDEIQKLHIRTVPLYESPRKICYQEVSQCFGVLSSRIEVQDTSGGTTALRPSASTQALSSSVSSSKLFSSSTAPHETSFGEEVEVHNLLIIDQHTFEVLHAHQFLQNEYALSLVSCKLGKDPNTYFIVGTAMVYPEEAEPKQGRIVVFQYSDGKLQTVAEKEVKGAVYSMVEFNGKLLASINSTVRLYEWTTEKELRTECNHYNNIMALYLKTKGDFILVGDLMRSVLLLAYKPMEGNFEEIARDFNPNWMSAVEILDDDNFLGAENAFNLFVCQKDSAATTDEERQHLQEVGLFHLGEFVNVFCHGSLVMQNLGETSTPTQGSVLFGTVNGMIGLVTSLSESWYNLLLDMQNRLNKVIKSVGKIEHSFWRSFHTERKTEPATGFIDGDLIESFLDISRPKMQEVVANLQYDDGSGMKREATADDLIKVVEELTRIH
T2 sequence (Q92466 whole entry, chain 2 of 2): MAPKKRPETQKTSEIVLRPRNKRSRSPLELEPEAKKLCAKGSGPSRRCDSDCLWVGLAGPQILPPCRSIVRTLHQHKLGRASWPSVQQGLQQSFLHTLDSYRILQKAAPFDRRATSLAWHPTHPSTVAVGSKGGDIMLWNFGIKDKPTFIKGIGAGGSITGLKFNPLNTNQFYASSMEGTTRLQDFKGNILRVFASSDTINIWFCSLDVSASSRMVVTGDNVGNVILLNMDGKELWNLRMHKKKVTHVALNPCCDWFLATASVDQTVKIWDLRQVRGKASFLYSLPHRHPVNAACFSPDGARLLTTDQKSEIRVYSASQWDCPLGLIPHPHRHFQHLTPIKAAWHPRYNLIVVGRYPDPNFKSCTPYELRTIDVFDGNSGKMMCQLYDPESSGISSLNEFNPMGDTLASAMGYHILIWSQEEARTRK

[5] = target: T2, UV-DDB (DDB1-DDB2 heterodimer); test: EMSA; 1.5 mM Mg2+; EMSA: 8 nM DNA, 20 mM HEPES pH 7.5, 150 mM NaCl, 2 mM DTT (5 mM for SMUG1), 5% glycerol, 0.5 mg/ml BSA (0.5 mg/l [sic] for SMUG1), +/- 1.5 mM MgCl2, RT 20 min (30 min for displacement); 5% native gel, 1/2x TBE, 4 C; conditions: protein: recombinant, tags: DDB1-6xHis, DDB2-Flag, copies: 1;1, label: 3'-6FAM on top strand, blunt

DNA tightrope with one THF site every 2 kb
binding ([1]; bound half-life with equimolar unlabeled UV-DDB, Qdot-labeled SMUG1): 580 s | binding ([1]; bound half-life, SMUG1 alone, Qdot-labeled): 4950 s

CCGAGTCATTCCTGCAGCGNGTCCATGGGAGTCAAAT / ATTTGACTCCCATGGACTCGCTGCAGGAATGACTCGG [THF37]
Kd [2]: 65 nM

UV-damaged DNA-binding protein (UV-DDB), DDB1-6xHis/DDB2-Flag heterodimer (from UniProt Q16531 1-1140; Q92466 1-427) (complex)
percent of all particles co-localised on abasic DNA [3]: 15.6%

B1: dU:dA37 (dsDNA)
DNA 1: CCGAGTCATTCCTGCAGCGAGUCCATGGGAGTCAAAT
DNA 2: ATTTGACTCCCATGGACTCGCTGCAGGAATGACTCGG
modifications: dU at position 22 of top strand, opposite dA
Kd [4]: 15 ± 1 nM | Kd [5]: 52 ± 3.4 nM

B2: 5-hmdU:dG37 (dsDNA)
DNA 1: B1 DNA 1
DNA 2: B1 DNA 2 with A16G
modifications: 5-hydroxymethyl-dU (X, written U) at position 22 of top strand, opposite dG
Kd ([4]; 5-hmdU:G mispair): 16 ± 1.5 nM | Kd ([5]; 5-hmdU:G mispair): 27 ± 1.9 nM

B3: UD37 (undamaged) (dsDNA)
DNA 1: B1 DNA 1 with U22T
DNA 2: B1 DNA 2
Kd [4]: 31 ± 2 nM | Kd [5]: 125 ± 9.1 nM

B4: 5-hmdU:dA37 (dsDNA)
DNA 1: B1 DNA 1
DNA 2: B1 DNA 2
modifications: 5-hydroxymethyl-dU (X, written U) at position 22 of top strand, opposite dA
Kd [4]: 14 ± 1.1 nM | Kd [5]: 48 ± 3 nM

B5: dU:dG37 (dsDNA)
DNA 1: B1 DNA 1
DNA 2: B1 DNA 2 with A16G
modifications: dU at position 22 of top strand, opposite dG
Kd ([4]; U:G mispair): 18 ± 1.6 nM | Kd ([5]; U:G mispair): 21 ± 2.1 nM
